# Measured values from the supplement of paper PMC11246515.
# ± gives the standard deviation of the averaged measurements.
# Assay: total protein half-life in vivo (active degradation + dilution); higher = more stable protein
# [1] = E. coli NCM3722 delta-clpP delta-lon delta-hslV, growth: N-lim chemostat, doubling time 6 h
# [2] = E. coli NCM3722 delta-clpP, growth: N-lim chemostat, doubling time 6 h
# [3] = E. coli NCM3722 delta-hslV, growth: N-lim chemostat, doubling time 6 h
# [4] = E. coli NCM3722 delta-lon, growth: N-lim chemostat, doubling time 6 h
# [5] = E. coli NCM3722 delta-smpB, growth: N-lim chemostat, doubling time 6 h
# [6] = wild type E. coli NCM3722, growth: C-lim chemostat, doubling time 3 h
# [7] = wild type E. coli NCM3722, growth: C-lim chemostat, doubling time 6 h
# [8] = wild type E. coli NCM3722, growth: C-lim chemostat, doubling time 12 h
# [9] = wild type E. coli NCM3722, growth: N-lim chemostat, doubling time 6 h
# [10] = wild type E. coli NCM3722, growth: N-lim chemostat, doubling time 12 h
# [11] = wild type E. coli NCM3722, growth: P-lim chemostat, doubling time 6 h
# [12] = wild type E. coli NCM3722, growth: P-lim chemostat, doubling time 12 h
Sequence,total protein half-life in vivo [1] [h],total protein half-life in vivo [2] [h],total protein half-life in vivo [3] [h],total protein half-life in vivo [4] [h],total protein half-life in vivo [5] [h],total protein half-life in vivo [6] [h],total protein half-life in vivo [7] [h],total protein half-life in vivo [8] [h],total protein half-life in vivo [9] [h],total protein half-life in vivo [10] [h],total protein half-life in vivo [11] [h],total protein half-life in vivo [12] [h]
MSLFHLIAPSGYCIKQHAALRGIQRLTDAGHQVNNVEVIARRCERFAGTETERLEDLNSLARLTTPNTIVLAVRGGYGASRLLADIDWQALVARQQHDPLLICGHSDFTAIQCGLLAHGNVITFSGPMLVANFGADELNAFTEHHFWLALRNETFTIEWQGEGPTCRAEGTLWGGNLAMLISLIGTPWMPKIENGILVLEDINEHPFRVERMLLQLYHAGILPRQKAIILGSFSGSTPNDYDAGYNLESVYAFLRSRLSIPLITGLDFGHEQRTVTLPLGAHAILNNTREGTQLTISGHPVLKM,4.96 ± 0.9,3.76 ± 0.25,4.05 ± 0.72,4.07 ± 0.22,3.65 ± 0.53,3.13 ± 0.084,5 ± 0.86,9.85 ± 0.41,3.693 ± 0.016,6.99 ± 0.87,6.058 ± 0.043,10.8 ± 0.56
MSLINTKIKPFKNQAFKNGEFIEITEKDTEGRWSVFFFYPADFTFVCPTELGDVADHYEELQKLGVDVYAVSTDTHFTHKAWHSSSETIAKIKYAMIGDPTGALTRNFDNMREDEGLADRATFVVDPQGIIQAIEVTAEGIGRDASDLLRKIKAAQYVASHPGEVCPAKWKEGEATLAPSLDLVGKI [P0AE08],2.82 ± 0.23,2.22 ± 0.28,1.91 ± 0.12,2.26 ± 0.079,2.119 ± 0.01,2.89 ± 0.21,5.05 ± 0.11,7.67 ± 0.6,2.03 ± 0.16,2.6085 ± 0.0015,5.49 ± 0.38,9.52 ± 0.29
MSLPHCPKCNSEYTYEDNGMYICPECAYEWNDAEPAQESDELIVKDANGNLLADGDSVTIIKDLKVKGSSSMLKIGTKVKNIRLVEGDHNIDCKIDGFGPMKLKSEFVKKN [P0AFJ1],5.52 ± 0.25,–,6.14 ± 1.1,5.91 ± 1,4.71 ± 0.15,2.53 ± 0.093,–,10.2 ± 0.45,4.88,10.2 ± 0.21,5.38 ± 0.21,–
MSLPMLQVALDNQTMDSAYETTRLIAEEVDIIEVGTILCVGEGVRAVRDLKALYPHKIVLADAKIADAGKILSRMCFEANADWVTVICCADINTAKGALDVAKEFNGDVQIELTGYWTWEQAQQWRDAGIGQVVYHRSRDAQAAGVAWGEADITAIKRLSDMGFKVTVTGGLALEDLPLFKGIPIHVFIAGRSIRDAASPVEAARQFKRSIAELWG,5.41,2.49,2.68,–,4.15 ± 2.2,2.29 ± 0.076,5.11 ± 1.5,5.84 ± 1.4,–,–,2.69,3.39
MSLSLWQQCLARLQDELPATEFSMWIRPLQAELSDNTLALYAPNRFVLDWVRDKYLNNINGLLTSFCGADAPQLRFEVGTKPVTQTPQAAVTSNVAAPAQVAQTQPQRAAPSTRSGWDNVPAPAEPTYRSNVNVKHTFDNFVEGKSNQLARAAARQVADNPGGAYNPLFLYGGTGLGKTHLLHAVGNGIMARKPNAKVVYMHSERFVQDMVKALQNNAIEEFKRYYRSVDALLIDDIQFFANKERSQEEFFHTFNALLEGNQQIILTSDRYPKEINGVEDRLKSRFGWGLTVAIEPPELETRVAILMKKADENDIRLPGEVAFFIAKRLRSNVRELEGALNRVIANANFTGRAITIDFVREALRDLLALQEKLVTIDNIQKTVAEYYKIKVADLLSKRRSRSVARPRQMAMALAKELTNHSLPEIGDAFGGRDHTTVLHACRKIEQLREESHDIKEDFSNLIRTLSS,5.49 ± 0.27,4.24 ± 0.24,2.83 ± 0.047,3.85 ± 0.16,2.8675 ± 0.00078,2.183 ± 0.021,3.897 ± 0.019,5.25 ± 0.15,2.94 ± 0.26,3.79 ± 0.058,3.61 ± 0.12,6.1 ± 0.38
MSLSRTQIVNWLTRCGDIFSTESEYLTGLDREIGDADHGLNMNRGFSKVVEKLPAIADKDIGFILKNTGMTLLSSVGGASGPLFGTFFIRAAQATQARQSLTLEELYQMFRDGADGVISRGKAEPGDKTMCDVWVPVVESLRQSSEQNLSVPVALEAASSIAESAAQSTITMQARKGRASYLGERSIGHQDPGATSVMFMMQMLALAAKE,4.62 ± 0.54,4.25 ± 0.72,4.36 ± 0.067,4.75 ± 0.52,4.23 ± 0.14,2.93 ± 0.12,5.43 ± 0.13,9.74 ± 0.25,4.432 ± 0.04,7.23 ± 0.11,4.75 ± 1.6,11.8 ± 0.41
MSLTRLLIRDFRNIETADLALSPGFNFLVGANGSGKTSVLEAIYTLGHGRAFRSLQIGRVIRHEQEAFVLHGRLQGEERETAIGLTKDKQGDSKVRIDGTDGHKVAELAHLMPMQLITPEGFTLLNGGPKYRRAFLDWGCFHNEPGFFTAWSNLKRLLKQRNAALRQVTRYEQLRPWDKELIPLAEQISTWRAEYSAGIAADMADTCKQFLPEFSLTFSFQRGWEKETEYAEVLERNFERDRQLTYTAHGPHKADLRIRADGAPVEDTLSRGQLKLLMCALRLAQGEFLTRESGRRCLYLIDDFASELDDERRGLLASRLKATQSQVFVSAISAEHVIDMSDENSKMFTVEKGKITD [P0A7H0],5.54 ± 0.29,4.43 ± 0.14,3.95 ± 0.053,4.92 ± 0.21,3.93 ± 0.32,–,5.07 ± 0.41,9.88 ± 0.3,4.32 ± 0.1,8.32 ± 0.12,4.06 ± 1,7.31 ± 0.63
